As usually defined, the Kd is the constant that tells how readily two partners part at equilibrium. A high value points to weaker binding.

Where no end group is shown, it is not given here.

Results on 5 molecules are retold here after PMC8701324, “Structural Insight into the Mechanism of PALB2 Interaction with MRG15” (Genes, 2021).

What all share (conditions): both partners purified
For test [1], the target named is T1, MRG15 MRG domain, amino acids 155-323 (UniProt Q9UBU8-2 155-323).
T1 construct: MRG15 (Morf-related gene on chromosome 15), MRG domain, amino acids 155-323; Cloned into the pET28b+-based pSMT3 vector; also called MRG15^155-323; MRG15 fragment; source: E. coli BL21*, purified (Ni-NTA, SUMO tag cleaved with Ulp1, second Ni-NTA flowthrough); not shown: 6xHis, N-terminal, cleaved; SUMO, N-terminal, cleaved
As to the kind of experiment: pull-down; His-tagged PALB2 peptide (0.1 mg/mL) bound to Ni-NTA beads, MRG15 155-323 (0.1 mg/mL) added for 30 min; Buffer B (25 mM HEPES pH 7.5, 10% glycerol, 2 mM CHAPS, 300 mM NaCl), washes with 20 mM imidazole, elution with 250 mM imidazole, SDS-PAGE.

The target of test [2] is T1, MRG15 MRG domain, amino acids 155-323. Put plainly: fluorescence polarisation; fluorescence anisotropy competition; mutant PALB2 597-630 peptides serially diluted from 10 uM to 0.6 nM against a preformed complex of MRG15 and FAM-PALB2; 25 mM HEPES pH 8.0, 1 mM TCEP, 10% DMSO, 200 mM NaCl; room temperature.
For test [3] the target is unchanged. Put plainly: fluorescence polarisation; fluorescence anisotropy; MRG15 fragment serially diluted from 10 uM to 0.6 nM against 10 nM FAM-PALB2 597-630; 25 mM HEPES pH 8.0, 1 mM TCEP, 10% DMSO, 200 mM NaCl; four-parameter logistic fit, EC50 taken as Kd.

T1 sequence (Q9UBU8 194-362): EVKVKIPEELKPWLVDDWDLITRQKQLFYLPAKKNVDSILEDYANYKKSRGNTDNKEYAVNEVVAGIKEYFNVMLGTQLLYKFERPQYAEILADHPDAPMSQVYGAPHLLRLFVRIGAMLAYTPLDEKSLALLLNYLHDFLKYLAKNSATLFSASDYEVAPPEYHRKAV

B1: 6xHis-PALB2^597-630 (peptide, UniProt Q86YC2 597-630, looked up)
chain: MLSLKQLLSFLSITDFQLPDEDFGPLKLEKVKSC
notes: Cloned into pMCSG7; also called His-tagged PALB2 peptide; source: E. coli BL21*, purified (Ni-NTA from 8 M urea, washed down to 1 M urea); not shown: 6xHis, N-terminal, kept
Consider B1, for which the binding result in test [1] is listed as “binds”.

B2: PALB2^597-630 peptide Pro615Ser (peptide, UniProt Q86YC2 597-630, looked up)
peptide: MLSLKQLLSFLSITDFQLSDEDFGPLKLEKVKSC
notes: also called Pro615 to serine; source: synthetic peptide, bought: Genscript Biotech
Take B2: the “fold reduction in binding affinity against the wild-type peptide” value in test [2] was determined as 5 fold.

B3: fluorescein-labeled PALB2^597-630 peptide (peptide, UniProt Q86YC2 597-630, looked up)
peptide: MLSLKQLLSFLSITDFQLPDEDFGPLKLEKVKSC
modifications: also: fluorescein (FAM) label, position not given here
notes: also called FAM-PALB2; source: synthetic peptide, bought: Genscript Biotech
Take B3: in test [3], the affinity, expressed as Kd, was 23.4 ± 5 nM.

B4: PALB2^597-630 peptide Pro621Thr (peptide, UniProt Q86YC2 597-630, looked up)
peptide: MLSLKQLLSFLSITDFQLPDEDFGTLKLEKVKSC
notes: also called Pro621 by threonine; source: synthetic peptide, bought: Genscript Biotech
As to B4, the binding result in test [2] is on record as “binds”.

B5: PALB2^597-630 peptide Asp616His (peptide, UniProt Q86YC2 597-630, looked up)
peptide: MLSLKQLLSFLSITDFQLPHEDFGPLKLEKVKSC
notes: also called Asp616 with histidine; source: synthetic peptide, bought: Genscript Biotech
On to B5, for which the “fold reduction in binding affinity against the wild-type peptide” value in test [2] came out at 2 fold.
